Biological target: CIP2A(1-560)-V5 (human, UniProt Q8TCG1-1 1-560)
Assay: pull-down

B1: GST-NOCIVA (CIP2A 1-545 + 13 aa peptide) (natural protein)
chain: not shown
B1: binds.

From doi:10.1101/2020.08.24.264606 (bioRxiv, 2020)
